The record followed here is publication PMC10843481 (Structure (London, England : 1993), 2023).

Data set [1] has as its target 1TEL-GG-UBA as run in size exclusion chromatography with ubiquitin (human) (UniProt P41212). Briefly: SEC.
The data set “crystal structure” deals with the molecule itself. Briefly: crystal structure.

As to “M1-linked-tetra-ubiquitin (from UniProt P0CG47 1-76; P0CG47 1-76; P0CG47 1-76; P0CG47 1-76) (natural protein)”, the percent binding in data set [1] was 100%.

Consider “M1-linked-di-ubiquitin (from UniProt P0CG47 1-76; P0CG47 1-76) (natural protein)”, for which, in data set [1], the percent binding came out at 100%.

With “M1-linked-tri-ubiquitin (from UniProt P0CG47 1-76; P0CG47 1-76; P0CG47 1-76) (natural protein)”, the percent binding in data set [1] is 100%.

B1: 1TEL-GG-UBA (other, human)
chain: IRLPAHLRLQPIYWSRDDVAQWLKWAENEFSLSPIDSNTFEMNGKALLLLTKEDFRYRSPHSGDELYELLQHILGGELQRKIMEVELSVHGVTHQEAQTALGATGGDVVSAIRNLKVDQLFHLSSRSRADAWRILEHYQWDLSAASRYVLARP
For the molecule B1, the binding result in the data set “crystal structure” is “binds”.

B2: 1TEL-GSGG-UBA (other, human)
chain: IRLPAHLRLQPIYWSRDDVAQWLKWAENEFSLSPIDSNTFEMNGKALLLLTKEDFRYRSPHSGDELYELLQHILGSGGELQRKIMEVELSVHGVTHQEAQTALGATGGDVVSAIRNLKVDQLFHLSSRSRADAWRILEHYQWDLSAASRYVLARP
For B2, the binding result in “crystal structure” is listed as “binds”.
